From PMC2910053

Molecular target: Cy3B-SSB (W88C SSB labeled with Cy3B, one per monomer) W89C (UniProt P0AGE0)
Experiment: bulk fluorescence

Substance: ssDNA (unspecified, bulk assay)
- Kd: < 2.5 nM
